The labels stand for the following.
B1: CPEB3 Ribozyme (parent)
chain: GGGGGCCACAGCAGAAGCGUUCACGUCGCGGCCCCUGUCAGAUUCUGGUGAAUCUGCGAAUUCUGCUGU

The variants in the series derive from B1. Put plainly: self-cleavage, relative activity (ratio to wild type); higher = more cleavage; co-transcriptional.
For the variant GGGGGCCACAGCAGAAGCCUUCACGUCGCGGCCCCUGUCAGAUUCUGGUGAAUCUGCGAAUUCUGCUGG [G19C U69G], the self-cleavage was 0.231.
With GGGGGCCACAGCAGAAGCCUUCACGUCGCGGCCCCUGUCAGAUUCUGGUGAAUCUGCGAAUUCUGCUGC [G19C U69C] the figure was 0.357.
Regarding GGGGGCCACAGCAGAAGCUUUCACGUCGCGGCCCCUGUCAGUUUCUGGUGAAUCUGCGAAUUCUGCUGU [G19U A42U], the self-cleavage was 0.327.
With GGGGGCCACAGCAGAAGCUUUCACGUCGCGGCCCCUGUCAGCUUCUGGUGAAUCUGCGAAUUCUGCUGU [G19U A42C] the figure was 0.269; with GGGGGCCACAGCAGAAGCUUUCACGUCGCGGCCCCUGUCAGGUUCUGGUGAAUCUGCGAAUUCUGCUGU [G19U A42G], 0.326.
Turning to GGGGGCCACAGCAGAAGCUUUCACGUCGCGGCCCCUGUCAGAUUCUGGUGAAUCUGCGGAUUCUGCUGU [G19U A59G], the self-cleavage is 0.66.
With GGGGGCCACAGCAGAAGCUUUCACGUCGCGGCCCCUGUCAGAUUCUGGUGAAUCUGCGUAUUCUGCUGU [G19U A59U] the figure was 0.158; with GGGGGCCACAGCAGAAGCUUUCAGGUCGCGGCCCCUGUCAGAUUCUGGUGAAUCUGCGAAUUCUGCUGU [G19U C24G], 0.121.
Take GGGGGCCACAGCAGAAGCUUUCUCGUCGCGGCCCCUGUCAGAUUCUGGUGAAUCUGCGAAUUCUGCUGU [G19U A23U]: the self-cleavage was 0.494.
For GGGGGCCACAGCAGAAGCUUUCCCGUCGCGGCCCCUGUCAGAUUCUGGUGAAUCUGCGAAUUCUGCUGU [G19U A23C], the self-cleavage came out at 0.333.
With GGGGGCCACAGCAGAAGCCUUCACGUCGCGGCCCCUGUCAGAUUCUGGUGAAUCCGCGAAUUCUGCUGU [G19C U55C] the figure was 0.163.
For the variant GGGGGCCACAGCAGAAGCCUUCACGUCGCGGCCCCUGUCAGAUUCUGGUGAAUCGGCGAAUUCUGCUGU [G19C U55G], the self-cleavage is 0.172.
With GGGGGCCACAGCAGAAGCCUUCACGUCGCGGCCCCUGUCAGAUUCUGGUGAAUCAGCGAAUUCUGCUGU [G19C U55A] the figure was 0.132.
With GGGGGCCACAGCAGAAGCUUUCACGUCGCGGCCCCUGUCAGAUUCUGGUGAAUCUGCGAGUUCUGCUGU [G19U A60G] the figure was 0.289; with GGGGGCCACAGCAGAAGCUUUCACGUCGCGGCCCCUGUCAGAUUCUGGUGAAUCUGCGAUUUCUGCUGU [G19U A60U], 0.168; with GGGGGCCACAGCAGAAGCCUUCACGUCGCGGCCCCUGUCAGAUUCUGGUGAAUCUGCGAAUUCCGCUGU [G19C U64C], 0.123.
For GGGGGCCACAGCAGAAGCUUUCACGUCGCGGCCCCUGUCAGAUUCUGGUGGAUCUGCGAAUUCUGCUGU [G19U A51G], the self-cleavage worked out at 0.538.
With GGGGGCCACAGCAGAAGCUUUCACGUCGCGGCCCCUGUCAGAUUCUGGUGUAUCUGCGAAUUCUGCUGU [G19U A51U] the figure was 0.476; with GGGGGCCACAGCAGAAGCCUUCACGUCGCGGCCCCUGUCAGAUUCUGGUGAAUCUGCGAAUUCUGCAGU [G19C U67A], 0.0765.
With GGGGGCCACAGCAGAAGCCUUCACGUCGCGGCCCCUGUCAGAUUCUGGUGAAUCUGCGAAUUCUGCGGU [G19C U67G] the figure was 0.159; with GGGGGCCACAGCAGAAGCUUUCACGUCGCGGCCCCUGUCGGAUUCUGGUGAAUCUGCGAAUUCUGCUGU [G19U A40G], 0.332.
With GGGGGCCACAGCAGAAGCUUUCACGUCGCGGCCCCUGUCUGAUUCUGGUGAAUCUGCGAAUUCUGCUGU [G19U A40U] the figure was 0.237; with GGGGGCCACAGCAGAAGCUUUCACGUCGCGGCCCCUGUCCGAUUCUGGUGAAUCUGCGAAUUCUGCUGU [G19U A40C], 0.189.
As to GGGGGCCACAGCAGAAGCCUUCACGUCGCGGCCCCUGUCAGAUUCUGGUGAAUCUGCGAAUGCUGCUGU [G19C U62G], the self-cleavage was 0.162.
With GGGGGCCACAGCAGAAGCUUUCACGUCGCGGCCCCUGUCAGAUUCUGGUGAAUCUGCGAAUUCUGCUGU [G19U] the figure was 0.644; with GGGGGCCACAGCAGAAGCUUUCACGUGGCGGCCCCUGUCAGAUUCUGGUGAAUCUGCGAAUUCUGCUGU [G19U C27G], 0.82; with GGGGGCCACAGCAGAAGCUUUCACGUAGCGGCCCCUGUCAGAUUCUGGUGAAUCUGCGAAUUCUGCUGU [G19U C27A], 0.947.
With GGGGGCCACAGCAGAAGCCUUCACGUCGCGGCCCCUGUCAGAUUCUGGUGAAUCUGCGAACUCUGCUGU [G19C U61C] the figure was 0.161; with GGGGGCCACAGCAGAAGCCUUCACGUCGCGGCCCCUGUCAGAUUCUGGUGAAUCUGCGAAGUCUGCUGU [G19C U61G], 0.116.
As to GGGGGCCACAGCAGAAGCUUUUACGUCGCGGCCCCUGUCAGAUUCUGGUGAAUCUGCGAAUUCUGCUGU [G19U C22U], the self-cleavage turned out to be 0.107.
In the case of GGGGGCCACAGCAGAAGCUUUAACGUCGCGGCCCCUGUCAGAUUCUGGUGAAUCUGCGAAUUCUGCUGU [G19U C22A], the self-cleavage was 0.14.
As to GGGGGCCACAGCAGAAGCUUUGACGUCGCGGCCCCUGUCAGAUUCUGGUGAAUCUGCGAAUUCUGCUGU [G19U C22G], the self-cleavage turned out to be 0.164.
With GGGGGCCACAGCAGAAGCUUUCACGUCGCGGCCCCUGUCAGAUUCUGGUGAUUCUGCGAAUUCUGCUGU [G19U A52U] the figure was 0.474; with GGGGGCCACAGCAGAAGCUUUCACGUCGCGGCCCCUGUCAGAUUCUGGUGACUCUGCGAAUUCUGCUGU [G19U A52C], 0.432; with GGGGGCCACAGCAGAAGCUUUCACGUCGCGGCCCCUGUCAGAUUCUGGUGAGUCUGCGAAUUCUGCUGU [G19U A52G], 0.589.
With GGGGGCCACAGCAGAAGCCUUCACGUCGCGGCCCCUGUCAGAUUCUGGUGAAACUGCGAAUUCUGCUGU [G19C U53A] the figure was 0.224; with GGGGGCCACAGCAGAAGCCUUCACGUCGCGGCCCCUGUCAGAUUCUGGUGAAGCUGCGAAUUCUGCUGU [G19C U53G], 0.158; with GGGGGCCACAGCAGAAGCCUUCACGUCGCGGCCCCUGUCAGAUUCUGGCGAAUCUGCGAAUUCUGCUGU [G19C U49C], 0.104.
With GGGGGCCACAGCAGAAGCCUUCACGUCGCGGCCCCUGUCAGAUUCUGGGGAAUCUGCGAAUUCUGCUGU [G19C U49G] the figure was 0.182.
